One test deals with human platelet factor 4. As to the kind of experiment: ELISA-qPCR. To be noted: PF4-coated wells; N = 6, two independent repeats; bar labelled Ad5-ΔfX; parent: est. 1.7e5; read off a plot. (ELISA stands for enzyme-linked immunosorbent assay.)
Test [1] has as its target human platelet factor 4 (human).
Test [2] deals with adenovirus type 5 vector particles (wild-type capsid) (human adenovirus type 5). The test can be described thus: SPR; MP-SPR 220A, CMD 2D sensor, viruses amine-coupled, 22°C; PF4 at 7 μg/mL (900 nM) in pure PBS without passivating agents, 600 s injection, then flush. Background: Surface plasmon resonance follows binding to a sensor surface in real time, without labels.

For “adenovirus type 5 vector particles (wild-type capsid) (from UniProt P06496) T425A”, the response (number of bound VPs) in the test with human platelet factor 4 came out at 290000. “adenovirus type 5 vector particles (wild-type capsid), P06496 1-107” had a VP uptake in A549 cells (internalized Ad genomes by qPCR, 3 hpi, 20 vpc) after incubation with 10 μg/mL PF4 in test [1] of 3 fold. Same read-out and setting: the figure for “adenovirus type 11 vector particles (complex)” is 1.6 fold. Still for that read-out and setting: next, “adenovirus type 13 vector particles (complex)”: 1.6 fold. Still for that read-out and setting: the figure for “adenovirus type 69 vector particles (complex)” is 3 fold.

Turning to “human platelet factor 4 (natural protein)”, the dissociation constant Kd in test [2] was found to be 1050 nM.

The Kd is the equilibrium constant for the complex coming apart. The low end stands for higher affinity, the high end for lower affinity.

The record behind these values is article PMC12775996.
